Assay: in vivo
Design: species or system mice
Conditions: male, NODSCID 1L2RγKO, mouse, iv, total radioactivity

With COc1ccc(CCCC(=O)NCC(=O)N[C@@H](CCCCNC(=O)CN2CCN(CC(=O)O)CCN(CC(=O)O)CCN(CC(=O)O)CC2)C(=O)NC[C@H]2CC[C@H](C(=O)N[C@@H](Cc3c4ccccc4cc4ccccc34)C(=O)NCCCC[C@H](NC(=O)N[C@@H](CCCC(=O)O)C(=O)O)C(=O)O)CC2)cc1 [177Lu-HTK03170, metal not drawn] the tissue uptake at 1 h (Adrenal glands uptake) was 3.34 ± 0.45 %ID/g, the tissue uptake at 4 h (Adrenal glands uptake) was 1.78 ± 0.45 %ID/g and the tissue uptake at 24 h (Adrenal glands uptake) was 0.5 ± 0.16 %ID/g. For the same molecule, the tissue uptake at 72 h (Adrenal glands uptake) was 0.27 ± 0.11 %ID/g, the tissue uptake at 120 h (Adrenal glands uptake) was 0.22 ± 0.18 %ID/g and the tissue uptake at 1 h (Blood uptake) was 16.9 ± 1.97 %ID/g. It also gave a tissue uptake at 4 h (Blood uptake) of 8.34 ± 1.67 %ID/g, a tissue uptake at 24 h (Blood uptake) of 0.59 ± 0.13 %ID/g and a tissue uptake at 72 h (Blood uptake) of 0.06 ± 0.02 %ID/g. It also gave a tissue uptake at 120 h (Blood uptake) of 0.02 ± 0.01 %ID/g, a tissue uptake at 1 h (Bone uptake) of 0.89 ± 0.27 %ID/g and a tissue uptake at 4 h (Bone uptake) of 0.45 ± 0.13 %ID/g. It also gave a tissue uptake at 24 h (Bone uptake) of 0.06 ± 0.04 %ID/g, a tissue uptake at 72 h (Bone uptake) of 0.03 ± 0.02 %ID/g and a tissue uptake at 120 h (Bone uptake) of 0.02 ± 0.01 %ID/g. It also gave a tissue uptake at 1 h (Brain uptake) of 0.23 ± 0.04 %ID/g, a tissue uptake at 4 h (Brain uptake) of 0.13 ± 0.03 %ID/g and a tissue uptake at 24 h (Brain uptake) of 0.02 ± 0.01 %ID/g. It also gave a tissue uptake at 72 h (Brain uptake) of 0.01 %ID/g, a tissue uptake at 1 h (Fat uptake) of 1.38 ± 0.45 %ID/g and a tissue uptake at 4 h (Fat uptake) of 0.6 ± 0.13 %ID/g. It also gave a tissue uptake at 24 h (Fat uptake) of 0.12 ± 0.04 %ID/g, a tissue uptake at 72 h (Fat uptake) of 0.04 ± 0.02 %ID/g and a tissue uptake at 120 h (Fat uptake) of 0.03 ± 0.03 %ID/g. It also gave a tissue uptake at 1 h (Heart uptake) of 3.6 ± 0.52 %ID/g, a tissue uptake at 4 h (Heart uptake) of 1.91 ± 0.4 %ID/g and a tissue uptake at 24 h (Heart uptake) of 0.26 ± 0.04 %ID/g. For the same molecule, the tissue uptake at 72 h (Heart uptake) was 0.09 ± 0.03 %ID/g, the tissue uptake at 120 h (Heart uptake) was 0.04 ± 0.02 %ID/g and the tissue uptake at 1 h (Intestine uptake) was 1.19 ± 0.25 %ID/g. For the same molecule, the tissue uptake at 4 h (Intestine uptake) was 0.61 ± 0.17 %ID/g, the tissue uptake at 24 h (Intestine uptake) was 0.18 ± 0.07 %ID/g and the tissue uptake at 72 h (Intestine uptake) was 0.14 ± 0.11 %ID/g. For the same molecule, the tissue uptake at 120 h (Intestine uptake) was 0.04 ± 0.03 %ID/g, the tissue uptake at 1 h (Kidneys uptake) was 13.2 ± 1.87 %ID/g and the tissue uptake at 4 h (Kidneys uptake) was 9.23 ± 2.18 %ID/g. For the same molecule, the tissue uptake at 24 h (Kidneys uptake) was 5.8 ± 1.24 %ID/g, the tissue uptake at 72 h (Kidneys uptake) was 2.56 ± 0.62 %ID/g and the tissue uptake at 120 h (Kidneys uptake) was 1.3 ± 0.55 %ID/g. It also gave a tissue uptake at 1 h (Lacrimal uptake) of 0.27 ± 0.08 %ID/g, a tissue uptake at 4 h (Lacrimal uptake) of 0.15 ± 0.07 %ID/g and a tissue uptake at 24 h (Lacrimal uptake) of 0.04 ± 0.03 %ID/g. The tissue uptake at 72 h (Lacrimal uptake) was 0.01 ± 0.01 %ID/g, the tissue uptake at 1 h (Liver uptake) was 2.67 ± 0.37 %ID/g and the tissue uptake at 4 h (Liver uptake) was 1.89 ± 0.69 %ID/g. The tissue uptake at 24 h (Liver uptake) was 0.69 ± 0.27 %ID/g, the tissue uptake at 72 h (Liver uptake) was 0.36 ± 0.13 %ID/g and the tissue uptake at 120 h (Liver uptake) was 0.23 ± 0.13 %ID/g. The tissue uptake at 1 h (Lungs uptake) was 8.06 ± 1.48 %ID/g, the tissue uptake at 4 h (Lungs uptake) was 4.35 ± 0.82 %ID/g and the tissue uptake at 24 h (Lungs uptake) was 0.72 ± 0.19 %ID/g. For the same molecule, the tissue uptake at 72 h (Lungs uptake) was 0.18 ± 0.04 %ID/g, the tissue uptake at 120 h (Lungs uptake) was 0.06 ± 0.03 %ID/g and the tissue uptake at 1 h (Muscle uptake) was 1.15 ± 0.19 %ID/g. For the same molecule, the tissue uptake at 4 h (Muscle uptake) was 0.58 ± 0.13 %ID/g, the tissue uptake at 24 h (Muscle uptake) was 0.08 ± 0.02 %ID/g and the tissue uptake at 72 h (Muscle uptake) was 0.02 ± 0.01 %ID/g. For the same molecule, the tissue uptake at 120 h (Muscle uptake) was 0.01 ± 0.01 %ID/g, the tissue uptake at 1 h (Pancreas uptake) was 1.41 ± 0.31 %ID/g and the tissue uptake at 4 h (Pancreas uptake) was 0.74 ± 0.18 %ID/g. The tissue uptake at 24 h (Pancreas uptake) was 0.12 ± 0.03 %ID/g, the tissue uptake at 72 h (Pancreas uptake) was 0.04 ± 0.01 %ID/g and the tissue uptake at 120 h (Pancreas uptake) was 0.02 ± 0.02 %ID/g. It also gave a tissue uptake at 1 h (Salivary uptake) of 2.43 ± 0.33 %ID/g, a tissue uptake at 4 h (Salivary uptake) of 1.31 ± 0.3 %ID/g and a tissue uptake at 24 h (Salivary uptake) of 0.28 ± 0.04 %ID/g. The tissue uptake at 72 h (Salivary uptake) was 0.11 ± 0.03 %ID/g, the tissue uptake at 120 h (Salivary uptake) was 0.05 ± 0.04 %ID/g and the tissue uptake at 1 h (Seminal uptake) was 1.22 ± 0.4 %ID/g. For the same molecule, the tissue uptake at 4 h (Seminal uptake) was 0.49 ± 0.1 %ID/g, the tissue uptake at 24 h (Seminal uptake) was 0.08 ± 0.02 %ID/g and the tissue uptake at 72 h (Seminal uptake) was 0.04 ± 0.01 %ID/g. The tissue uptake at 120 h (Seminal uptake) was 0.02 ± 0.01 %ID/g, the tissue uptake at 1 h (Spleen uptake) was 1.64 ± 0.83 %ID/g and the tissue uptake at 4 h (Spleen uptake) was 0.96 ± 0.29 %ID/g. It also gave a tissue uptake at 24 h (Spleen uptake) of 0.45 ± 0.1 %ID/g, a tissue uptake at 72 h (Spleen uptake) of 0.38 ± 0.15 %ID/g and a tissue uptake at 120 h (Spleen uptake) of 0.49 ± 0.38 %ID/g. It also gave a tissue uptake at 1 h (Stomach uptake) of 0.59 ± 0.12 %ID/g, a tissue uptake at 4 h (Stomach uptake) of 0.42 ± 0.15 %ID/g and a tissue uptake at 24 h (Stomach uptake) of 0.25 ± 0.13 %ID/g. The tissue uptake at 72 h (Stomach uptake) was 0.28 ± 0.33 %ID/g, the tissue uptake at 120 h (Stomach uptake) was 0.05 ± 0.08 %ID/g and the tissue uptake at 1 h (Tail uptake) was 6.11 ± 3.05 %ID/g. For the same molecule, the tissue uptake at 4 h (Tail uptake) was 2.66 ± 0.9 %ID/g, the tissue uptake at 24 h (Tail uptake) was 0.31 ± 0.06 %ID/g and the tissue uptake at 72 h (Tail uptake) was 0.19 ± 0.12 %ID/g. The tissue uptake at 120 h (Tail uptake) was 0.08 ± 0.06 %ID/g, the tissue uptake at 1 h (Testes uptake) was 2.17 ± 0.32 %ID/g and the tissue uptake at 4 h (Testes uptake) was 1.83 ± 0.58 %ID/g. The tissue uptake at 24 h (Testes uptake) was 0.64 ± 0.53 %ID/g, the tissue uptake at 72 h (Testes uptake) was 0.24 ± 0.04 %ID/g and the tissue uptake at 120 h (Testes uptake) was 0.14 ± 0.06 %ID/g. It also gave a tissue uptake at 1 h (Thyroid uptake) of 2.9 ± 0.41 %ID/g, a tissue uptake at 4 h (Thyroid uptake) of 1.62 ± 0.42 %ID/g and a tissue uptake at 24 h (Thyroid uptake) of 0.37 ± 0.06 %ID/g. For the same molecule, the tissue uptake at 72 h (Thyroid uptake) was 0.15 ± 0.01 %ID/g, the tissue uptake at 120 h (Thyroid uptake) was 0.08 ± 0.05 %ID/g and the tissue uptake at 1 h (Tumor uptake) was 27.2 ± 7.55 %ID/g. The tissue uptake at 4 h (Tumor uptake) was 47.6 ± 13.5 %ID/g, the tissue uptake at 24 h (Tumor uptake) was 57.2 ± 15.3 %ID/g and the tissue uptake at 72 h (Tumor uptake) was 59.3 ± 16 %ID/g. For the same molecule, the tissue uptake at 120 h (Tumor uptake) was 61.9 ± 22.3 %ID/g.

Source: US11504441B2, “Radiolabeled compounds targeting the prostate-specific membrane antigen” (PROVINCIAL HEALTH SERVICES AUTHORITY, priority 2019, dated 2022)
